From patent publication US20030148420

Target: T1, Aspergillus ochraceus 11 alpha hydroxylase
T1 chain: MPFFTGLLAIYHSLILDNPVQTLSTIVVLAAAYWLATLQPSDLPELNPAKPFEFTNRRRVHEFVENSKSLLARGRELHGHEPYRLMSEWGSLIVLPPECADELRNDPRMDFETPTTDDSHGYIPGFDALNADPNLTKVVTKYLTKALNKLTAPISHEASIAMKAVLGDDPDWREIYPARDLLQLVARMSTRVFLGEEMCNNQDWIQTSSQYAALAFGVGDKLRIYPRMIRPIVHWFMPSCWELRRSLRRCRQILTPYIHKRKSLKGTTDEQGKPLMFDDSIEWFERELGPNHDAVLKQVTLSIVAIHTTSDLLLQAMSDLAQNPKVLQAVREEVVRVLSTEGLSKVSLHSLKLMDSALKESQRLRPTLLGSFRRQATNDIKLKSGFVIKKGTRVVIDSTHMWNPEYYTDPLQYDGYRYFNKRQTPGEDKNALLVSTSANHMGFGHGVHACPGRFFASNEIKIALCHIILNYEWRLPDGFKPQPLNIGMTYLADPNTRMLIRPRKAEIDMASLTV

B1: human oxidoreductase (protein)
chain: MGDSHVDTSSTVSEAVAEEVSLFSMTDMILFSLIVGLLTYWFLFRKKKEEVPEFTKIQTLTSSVRESSFVEKMKKTGRNIIVFYGSQTGTAEEFANRLSKDAHRYGMRGMSADPEEYDLADLSSLPEIDNALVVFCMATYGEGDPTDNAQDFYDWLQETDVDLSGVKFAVFGLGNKTYEHFNAMGKYVDKRLEQLGAQRIFELGLGDDDGNLEEDFITWREQFWPAVCEHFGVEATGEESSIRQYELVVHTDIDAAKVYMGEMGRLKSYENQKPPFDAKNPFLAAVTTNRKLNQGTERHLMHLELDISDSKIRYESGDHVAVYPANDSALVNQLGKILGADLDVVMSLNNLDEESNKKHPFPCPTSYRTALTYYLDITNPPRTNVLYELAQYASEPSEQELLRKMASSSGEGKELYLSWVVEARRHILAILQDCPSLRPPIDHLCELLPRLQARYYSIASSSKVHPNSVHICAVVVEYETKAGRINKGVATNWLRAKEPAGENGGRALVPMFVRKSQFRLPFKATTPVIMVGPGTGVAPFIGFIQERAWLRQQGKEVGETLLYYGCRRSDEDYLYREELAQFHRDGALTQLNVAFSREQSHKVYVQHLLKQDREHLWKLIEGGAHIYVCGDARNMARDVQNTFYDIVAELGAMEHAQAVDYIKKLMTKGRYSLDVWS
conversion of 4-androstene-3,17-dione (AD) to 11 alpha-hydroxy-AD, by HPLC: successfully catalyzed the conversion of the steroid substrate 4-androstene-3,17-dione (AD) to 11 alpha-hydroxy-AD
